T1: cytosolic domain of human PRRG4 (human, UniProt Q9BZD6 139-226)
T1 construct: Expressed in insect cells; also called cytosolic hPPRG4; cystosolic domain of hPPRG4; not shown: purified by HA and histidine columns, so HA and His tags are implied
T1 sequence: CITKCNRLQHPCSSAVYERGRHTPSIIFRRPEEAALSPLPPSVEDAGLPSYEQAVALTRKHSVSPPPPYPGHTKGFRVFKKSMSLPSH

B1: Nebulette (other, UniProt O76041 954-1014, looked up)
chain: PNLRTYRAMYDYSAQDEDEVSFRDGDYIVNVQPIDDGWMYGTVQRTGRTGMLPANYIEFVN
notes: domain: SH3 domain; Array spot; also called NEBL
B2: Grb2-related adaptor protein, SH3 Domain #2 (other, UniProt Q13588 158-217, looked up)
chain: PGACFAQAQFDFSAQDPSQLSFRRGDIIEVLERPDPHWWRGRSCGRVGFFPRSYVQPVHL
notes: domain: SH3 Domain #2; Array spot; also called Grap-D2
B3: PAK-interacting exchange factor beta (other, UniProt Q14155 184-243, looked up)
chain: NNQLVVRAKFNFQQTNEDELSFSKGDVIHVTRVEEGGWWEGTLNGRTGWFPSNYVREVKA
notes: domain: SH3 domain; Array spot; also called Y124
B4: Peroxisomal membrane protein PEX13 (other, UniProt Q92968 272-336, looked up)
chain: DDHVVARAEYDFAAVSEEEISFRAGDMLNLALKEQQPKVRGWLLASLDGQTTGLIPANYVKILGK
notes: domain: SH3 domain; Array spot; also called PEXD
B5: Abelson-related protein; Arg tyrosine kinase (other, UniProt P42684 107-167, looked up)
chain: SDPNLFVALYDFVASGDNTLSITKGEKLRVLGYNQNGEWSEVRSKNGQGWVPSNYITPVNS
notes: domain: SH3 domain; Array spot; also called Abl2
B6: Lyn, Src family of non-receptor protein Tyrosine kinase (other, UniProt P07948 63-123, looked up)
chain: EQGDIVVALYPYDGIHPDDLSFKKGEKMKVLEEHGEWWKAKSLLTKKEGFIPSNYVAKLNT
notes: domain: SH3 domain; Array spot
B7: Osteoclast stimulating factor 1 (other, UniProt Q92882 12-71, looked up)
chain: GQVKVFRALYTFEPRTPDELYFEEGDIIYITDMSDTNWWKGTSKGRTGLIPSNYVAEQAE
notes: domain: SH3 domain; Array spot; also called OSF
B8: Tyrosine-protein kinase Tec (other, UniProt P42680 179-239, looked up)
chain: NSEEIVVAMYDFQAAEGHDLRLERGQEYLILEKNDVHWWRARDKYGNEGYIPSNYVTGKKS
notes: as for B6
B9: Bruton Tyrosine Kinase (other, UniProt Q06187 214-274, looked up)
chain: SELKKVVALYDYMPMNANDLQLRKGDEYFILEESNLPWWRARDKNGQEGYIPSNYVTEAED
notes: domain: SH3 domain; Array spot; also called BTK

target: T1, cytosolic domain of human PRRG4; experiment: SH3 domain array probed with purified cytosolic hPRRG4; listed as a hit
Description: (§1) The cystosolic domain of hPPRG4 was expressed in insect cells and proteins were purified by HA and histidine columns. Interactions of cytosolic hPPRG4 with different SH3 and WW domains were tested by incubating purified hPRRG4 proteins with arrays containing SH3 and WW domains of several proteins. After incubation, PRRG4 bound to several proteins, most of which are non-receptor tyrosine kinases or scaffolding proteins. These newly identified binding partners provide valuable therapeutic targets for the isolation and characterization of therapeutic agents that impact PRRG4 mediated oncogenesis.

Binding result, binds:
B1
B2
B3
B4
B5
B6
B7
B8
B9

target: T1, cytosolic domain of human PRRG4; experiment: WW domain array probed with purified cytosolic hPRRG4; listed as a hit
Text: PRRG4 has one WW-binding domain in its cytosolic domain. WW domains are involved in several cellular processes including cell cycle control and cell proliferation. In order to analyze the possible interactions of PRRG4 with different WW motif containing proteins, the cytosolic domain of human PRRG4 was purified by our group and used in TranSignal WW Domain Arrays. This array contains WW domains from 67 different human proteins and each WW domain is spotted in duplicate. […] Among these proteins Yes-Associated Protein1 (YAP 1) and Nedd4 are particularly important as they are known to play essential roles in several cellular activities including cell proliferation. FIGS. 9 and 10 are tables that show the proteins that are used on the array.
as §1

Binding result, binds:
LPLPPGWEMTFTATGQRYFLNHIEKITTWQDPRK (other, human, UniProt Q9GZV5 124-157, looked up, domain: WW domain; Array spot) [transcriptional co-activator with PDZ-binding motif (TAZ)]

Source: US20100017897A1 (CHILDREN S HOSPITAL OF PHILADELPHIA, published 2010)
